In patent EP4707304A1 (Axcynsis Therapeutics Pte. Ltd., dated 2024):
Changes are numbered by the printed parent chain. Names and notes keep the numbering of the source.

B1: humanized antibody hAb-13 (antibody, V domains shown)
VH: EVKLVESGGGLVKPGGSLRLSCAASGFTFNSYTMSWVRQTPAKRLEWVVTISSGGGRTYYPDSVKGRFTISRDNAKNTLYLQMSSLRAEDTAVYYCIRGDYRYDGFAYWGQGTLVTVSS
VL: DIQMTQSPSSLSASVGDRVTITCRASENIDSYLAWYQQKPGKSPQLLVYASTLLVDGVPSRFSGSRSGTQFSLTISSLQPEDVARYYCQHYYSIPYTFGSGTKLEIK
B2: humanized antibody hAb-19 (antibody, V domains shown)
VH: B1 VH with K13Q
VL: B1 VL with V55Q, S72T
B3: humanized antibody hAb-18 (antibody, V domains shown)
VH: B1 VH with K13Q
VL: B1 VL with V55Q, Q70D, S72T, R85T
B4: humanized antibody hAb-24 (antibody, V domains shown)
VH: B1 VH with K76R
VL: B1 VL with V55Q, S72T, V83F, R85T
B5: humanized antibody hAb-23 (antibody, V domains shown)
VH: B1 VH with K76R
VL: B1 VL with V55Q, S72T
B6: murine/human chimeric antibody cAb-1 (antibody, V domains shown)
VH: B1 VH with R19K, K76R, A88S, V93M, S119T
VL: B1 VL with S9A, D17E, R18T, P40Q, T74K, S76N, P80S
notes: also called VH0/VL0
B7: humanized antibody hAb-22 (antibody, V domains shown)
VH: B1 VH with K76R
VL: B1 VL with V55Q, Q70D, S72T, R85T
B8: humanized antibody hAb-29 (antibody, V domains shown)
VH: B1 VH with S31D
VL: B1 VL
notes: also called VH2VL4 with HC S31D
B9: humanized antibody hAb-15 (antibody, V domains shown)
VH: B1 VH with K13Q, T40A, A42G
VL: B1 VL with V55Q, S72T
B10: humanized antibody hAb-16 (antibody, V domains shown)
VH: B1 VH with K13Q, T40A, A42G
VL: B1 VL with V55Q, S72T, V83F, R85T
B11: humanized antibody hAb-17 (antibody, V domains shown)
VH: B1 VH with K13Q, T40A, A42G
VL: B1 VL
B12: murine/human chimeric antibody cAb-18 (antibody, V domains shown)
VH: B1 VH with R19K, K76R, A88S, V93M, G105K, S119T
VL: B1 VL with S9A, D17E, R18T, P40Q, T74K, S76N, P80S
notes: also called cAb-1 with G100K
B13: humanized antibody hAb-14 (antibody, V domains shown)
VH: B1 VH with K13Q, T40A, A42G
VL: B1 VL with V55Q, Q70D, S72T, R85T
B14: humanized antibody hAb-21 (antibody, V domains shown)
VH: B1 VH with K13Q
VL: B1 VL
B15: murine/human chimeric antibody cAb-2 (antibody, V domains shown)
VH: B1 VH with R19K, S31E, K76R, A88S, V93M, S119T
VL: B1 VL with S9A, D17E, R18T, P40Q, T74K, S76N, P80S
notes: also called cAb-1 with S31E
B16: humanized antibody hAb-20 (antibody, V domains shown)
VH: B1 VH with K13Q
VL: B1 VL with V55Q, S72T, V83F, R85T
B17: humanized antibody hAb-25 (antibody, V domains shown)
VH: B1 VH with K76R
VL: B1 VL
B18: humanized antibody hAb-47 (antibody, V domains shown)
VH: B1 VH with S31D, T40A, A42G, T78S, S84N, G105A
VL: B1 VL
notes: also called VH6VL4
B19: humanized antibody hAb-27 (antibody, V domains shown)
VH: B1 VH with S31M
VL: B1 VL
notes: also called VH2VL4 with HC S31M
B20: humanized antibody hAb-49 (antibody, V domains shown)
VH: B1 VH with K3Q, S31D, T40A, A42G, T78S, S84N, G105A
VL: B1 VL
notes: also called VH8VL4
B21: humanized antibody hAb-45 (antibody, V domains shown)
VH: B1 VH with K3Q, S31D, T40A, A42G, G105A
VL: B1 VL with V55Q, Q70D, S72T, R85T
notes: also called VH7VL5
B22: humanized antibody hAb-46 (antibody, V domains shown)
VH: B1 VH with K3Q, S31D, T40A, A42G, T78S, S84N, G105A
VL: B1 VL with V55Q, Q70D, S72T, R85T
notes: also called VH8VL5
B23: humanized antibody hAb-26 (antibody, V domains shown)
VH: B1 VH with S31Y
VL: B1 VL
notes: also called VH2VL4 with HC S31Y
B24: humanized antibody hAb-44 (antibody, V domains shown)
VH: B1 VH with S31D, T40A, A42G, T78S, S84N, G105A
VL: B1 VL with V55Q, Q70D, S72T, R85T
notes: also called VH6VL5
B25: murine/human chimeric antibody cAb-3 (antibody, V domains shown)
VH: B1 VH with R19K, S31D, K76R, A88S, V93M, S119T
VL: B1 VL with S9A, D17E, R18T, P40Q, T74K, S76N, P80S
notes: also called cAb-1 with S31D
B26: humanized antibody hAb-28 (antibody, V domains shown)
VH: B1 VH with S31Q
VL: B1 VL
notes: also called VH2VL4 with HC S31Q
B27: humanized antibody hAb-34 (antibody, V domains shown)
VH: B1 VH with S31D, G105A
VL: B1 VL
notes: also called VH2VL4 with HC S31D/G100A
B28: humanized antibody hAb-33 (antibody, V domains shown)
VH: B1 VH with G105A
VL: B1 VL
notes: also called VH2VL4 with HC G100A
B29: humanized antibody hAb-48 (antibody, V domains shown)
VH: B1 VH with K3Q, S31D, T40A, A42G, G105A
VL: B1 VL
notes: also called VH7VL4
B30: humanized antibody hAb-30 (antibody, V domains shown)
VH: B1 VH with S31E
VL: B1 VL
notes: also called VH2VL4 with HC S31E

Tests used:
[1] = biological target: T1, VLP-hCLDN6 (human) (UniProt P56747); experiment: ELISA, coated VLP-hCLDN6, 100 ul antibody sample (second well), HRP-Protein A
T1 sequence: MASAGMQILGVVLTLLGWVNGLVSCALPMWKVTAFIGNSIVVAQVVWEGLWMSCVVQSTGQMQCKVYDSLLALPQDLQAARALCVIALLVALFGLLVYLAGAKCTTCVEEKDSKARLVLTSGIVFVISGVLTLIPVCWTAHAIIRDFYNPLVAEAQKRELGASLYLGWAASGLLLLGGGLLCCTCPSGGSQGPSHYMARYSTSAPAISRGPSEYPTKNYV

[2] = biological target: T1, VLP-hCLDN6 (human); experiment: ELISA, coated VLP-hCLDN6, 10 ul antibody sample, HRP-Protein A
[3] = biological target: T1, VLP-hCLDN6 (human); experiment: ELISA, coated VLP-hCLDN6, 10 ul antibody sample (second well), HRP-Protein A
[4] = biological target: T1, VLP-hCLDN6 (human); experiment: ELISA, coated VLP-hCLDN6, 100 ul antibody sample, HRP-Protein A
[5] = biological target: T2, VLP-hCLDN6 (human, UniProt P56747 1-220); experiment: ELISA, VLP-CLDN6 coated 400 ng/well, 4-fold serial dilution, HRP goat anti-human IgG Fc
T2 construct: also called VLP-CLDN6; AT-003-ag1
T2 sequence: T1 sequence

[6] = biological target: T2, VLP-hCLDN6; experiment: ELISA on coated VLP-hCLDN6

Binder | OD450 [1] | OD450 [2] | OD450 [3] | OD450 [4] | EC50 [5] [pM] | EC50 [6] [pM]
B1 | 2.26 | 1.68 | 1.7 | 1.95 | – | –
B2 | 1.79 | 1.62 | 1.57 | 1.7 | – | –
B3 | 1.52 | 1.17 | 1.13 | 1.68 | – | –
B4 | 1.87 | 1.45 | 1.34 | 1.94 | – | –
B5 | 2.05 | 1.42 | 1.46 | 1.82 | – | –
B6 | – | – | – | – | 590 | 590
B7 | 1.65 | 1.12 | 0.96 | 1.63 | – | –
B8 | – | – | – | – | – | 290
B9 | 1.8 | 1.39 | 1.47 | 1.78 | – | –
B10 | 1.71 | 1.26 | 1.24 | 1.39 | – | –
B11 | 1.78 | 1.6 | 1.72 | 1.93 | – | –
B12 | – | – | – | – | 580 | –
B13 | 0.99 | 0.22 | 0.23 | 0.97 | – | –
B14 | 2.45 | 2.05 | 1.9 | 2.23 | – | –
B15 | – | – | – | – | 520 | –
B16 | 1.68 | 1.38 | 1.41 | 1.81 | – | –
B17 | 2.24 | 1.69 | 1.7 | 2.05 | – | –
B18 | – | – | – | – | – | 110
B19 | – | – | – | – | – | 120
B20 | – | – | – | – | – | 70
B21 | – | – | – | – | – | 4840
B22 | – | – | – | – | – | 6550
B23 | – | – | – | – | – | 100
B24 | – | – | – | – | – | 6670
B25 | – | – | – | – | 260 | –
B26 | – | – | – | – | – | 190
B27 | – | – | – | – | – | 890
B28 | – | – | – | – | – | 310
B29 | – | – | – | – | – | 130
B30 | – | – | – | – | – | 290
